Target: T1, rat Jagged-1 (rrJagged-1, R&D Systems Cat #599-JG) (rat, UniProt Q63722 34-1067)
T1 construct: extracellular domain; Bought reagent; also called non-biotinylated Jagged-1; cold-jagged1
Assay: ELISA: rat Jagged-1 (rrJagged-1) coated at 2 ug/mL, Nanobody series, detection by mouse anti-Myc tag and DAMPO, OD 490 nm
Method: Two rounds of phage display selection were performed similarly as described above. Binding assays were performed. In short: Maxisorp plate was coated with 100 ul 2 ug/ml of rrJagged-1 (R&D systems) in PBS O/N at 4 C. After washing the plate 4× with PBS the plate was blocked with 4% Marvel in PBS for 30 minutes on shaker. A concentration series of Nanobody (1-1000 nM) was added in 100 ul 2% Marvell/PBS and incubate for 1 hour on shaker. After washing the plate 4× with PBS the Nanobodies were detected with 100 ul 1:5000 Mouse-anti-MycTag in 2% Marvell/PBS for 1 hour and 100 ul 1:5000 DAMPO in 2% Marvell/PBS for 1 hour. After washing the DAMPO was detected with 100 ul OPD, stopped with 50 ul H2SO4 and quantification was performed at 490 nm in a plate reader.

binding result: binds
B1: 178D9 (VHH)
VHH: EVQLVKSGGGLVQPGGSLRLSCAASGSIVSANLIGWYRQAPGKQREGVAFITSGGAINYADSVKGRFTISRDDAKNTVYLQMNSLKPEDTAIYYCNLRQLGNVYWAQGTQVTVSS
notes: Nanobody against rat Jagged-1; not shown: C-terminal c-myc tag and His6 tag coded by vector pAX50

— patent US20110105733A1 (Ablynx, published 2011)
